# Patent publication US8975044B2, “Polynucleotides encoding for frizzled-binding agents and uses thereof” (OncoMed Pharmaceuticals, Inc., priority 2008, dated 2015)
# Assays:
# Format in all cases: in vivo, NOD/SCID mice
# [1] = test system: OMP-C28 colon tumor xenografts; assay: OMP-C28 colon tumor xenograft growth; conditions: 18R5 10 mg/kg IP twice weekly, single agent; p=0.02
# Protocol: In another embodiment anti-FZD antibodies were analyzed for their ability to reduce the growth of OMP-C28 colon tumor xenografts. Dissociated human OMP-C28 cells (10,000 per animal) were injected subcutaneously into 6-8 week old male NOD/SCID mice. Tumor growth was monitored weekly and tumor measurements were initiated once tumors were palpable. On day 24 mice with average tumor volume of 129 mm^3 were randomized into 4 groups of 10 animals each. Animals were injected with either control antibody, or 18R5 IgG antibody (10 mg/kg), or irinotecan (7.5 mg/kg) or combination of both 18R5 and irinotecan. Administration of the antibodies and irinotecan was performed via injection into the intra-peritoneal cavity, twice weekly. Tumors were measured twice a week and tumor volume was determined using the formula ½(a×b^2); where a=length, and b=breadth. Data are expressed as mean and mean±S.E.M. Group means were compared using Student's two-tailed, unpaired t test.
# [2] = test system: OMP-Pn4 pancreatic tumor xenografts; assay: OMP-Pn4 pancreatic tumor xenograft growth; conditions: 10 mg/kg IP once weekly
# Protocol: In another embodiment, anti-FZD antibodies were analyzed for their ability to reduce the growth of OMP-Pn4 pancreatic tumor xenografts. NOD/SCID mice were purchased from Harlan (Indianapolis, Ind.) and allowed to acclimate for several days prior to the studies. The establishment and characterization of in vivo cancer stem cell-driven pancreas xenograft models were described previously (Li et al., Cancer Res., 67:1030-7, 2007). For efficacy studies, OMP-Pn4 human pancreatic tumor cells were dissociated into single cell suspensions, resuspended in 1:1 (v/v) mixture of FACS buffer (Hank's balanced salt solution [HBSS] supplemented with 2% heat-inactivated fetal bovine serum and 20 mM Hepes) and Matrigel (BD Bioscience, San Jose, Calif.) and implanted subcutaneously into the right flank region of 6-7 weeks old male NOD/SCID mice with a 25-gauge needle containing 50,000 cells/100 μL. Tumor growth was monitored weekly and tumor measurements were initiated once tumors were palpable. […] Tumor growth was measured by with an electronic caliper (Coast Tools Company, San Leandro, Calif.). Tumors were measured once a week and tumor volume was determined using the formula ½(a×b^2); where a=length (longest axis of the tumor), and b=breadth (shortest axis of the tumor). […] Data are expressed as mean±S.E.M. Differences in mean values between groups were analyzed by non-parimetric t test. […]
# OMP-PN13 cells = assay: Tumorgenic potential of Muc16-positive cells sorted from 18R5-treated OMP-PN13 tumors; conditions: 75 cells per mouse, 10 mice; no tumor from Muc16+ cells, 7 of 10 from Muc16− cells
# Protocol: OMP-PN13-bearing mice were treated with 18R5 according to the protocol described in Example 21. Mice were euthanized 12 days after initiation of the Ab treatment. Tumors were harvested and processed to obtain a single cell suspension using collagenase III to digest the tissues. Mouse stromal cells were stained with a biotinylated anti-H-2 Kd antibody and a biotinylated anti-CD45 antibody. They were then incubated with magnetic beads conjugated to streptavidin (Thermo MagnaBind) and depleted using a Dynal magnet. The resulting lin-depleted tumor cells were stained with an anti-Muc16 mAb detected with a PE-conjugated secondary Ab. Muc16− positive and Muc16− negative cells were sorted using an ARIA FACS machine ran by the DIVA software. Cells were re-injected subcutaneously in the left flank of NOD/SCID mice for comparison of their tumorgenic potentials. Each cell type was injected into 10 mice. Each mouse received 75 cells. Representative pictures of tumors resulting from the injection of Muc16− (upper panel) and Muc16+(lower panel) cells are shown in FIG. 52B. No tumor grew after injection of the Muc16+cells, while 7 of the 10 mice injected with the Muc16− cells developed tumors.
molecule,measurement,setting,value
"18R5: human anti-FZD antibody; VH SEQ ID NO:10 (as 18R8), VL SEQ ID NO:14; binds FZD1, 2, 5, 7, 8 (antibody, V domains shown, 18R5/18R8 heavy chain variable region (VH); 18R5 light chain variable region (VL)) VH: EVQLVESGGGLVQPGGSLRLSCAASGFTFSHYTLSWVRQAPGKGLEWVSVISGDGSYTYYADSVKGRFTISSDNSKNTLYLQMNSLRAEDTAVYYCARNFIKYVFANWGQGTLVTVSS VL: DIELTQPPSVSVAPGQTARISCSGDNIGSFYVHWYQQKPGQAPVLVIYDKSNRPSGIPERFSGSNSGNTATLTISGTQAEDEADYYCQSYANTLSLVFGGGTKLTVLG",reduction in tumor growth,[1],40%
same,"tumor growth, monotherapy",[2],did not result in a significant reduction in tumor growth
same,tumorgenicity of 18R5-induced Muc16+ cells,OMP-PN13 cells,non-tumorgenic
